We go through three molecules from patent US20090318342A1, “Compounds” (IMPERIAL INNOVATIONS LIMITED, priority 2005, published 2009).

Common to all, as to assay type: biochemical
Experiment [1] addresses T1, full-length collagenase 1 (MMP-1) (Homo sapiens, UniProt P03956).
T1 construct: full-length collagenase 1 (MMP-1)
T1 sequence (P03956 100-469): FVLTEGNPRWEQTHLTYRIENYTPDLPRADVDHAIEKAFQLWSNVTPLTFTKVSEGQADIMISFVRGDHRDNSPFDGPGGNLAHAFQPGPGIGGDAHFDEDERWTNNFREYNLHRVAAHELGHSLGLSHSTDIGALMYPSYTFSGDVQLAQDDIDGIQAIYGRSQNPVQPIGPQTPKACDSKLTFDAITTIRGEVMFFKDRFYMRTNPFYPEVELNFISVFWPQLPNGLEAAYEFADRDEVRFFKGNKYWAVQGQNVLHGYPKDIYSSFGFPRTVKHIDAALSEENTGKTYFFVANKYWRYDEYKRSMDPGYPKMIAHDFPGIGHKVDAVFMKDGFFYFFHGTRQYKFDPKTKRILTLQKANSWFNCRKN
In words: Enzyme inhibition kinetic study, MMP-1. Here is the method: (§1) Enzyme inhibition kinetic studies—Inhibition kinetic studies for MMPs and TACE were carried out as described previously (19, 27) with modifications. Purified N-TIMP-3 and mutants were dialyzed against 20 mM Tris-HCl (pH 7.0), 50 mM NaCl containing 20% glycerol, centrifuged at 14,000 rpm for 10 min to remove any precipitate, and protein concentration was re-measured before conducting inhibition assays. Since NaCl inhibits the activity of the TACE ectodomain in vitro (28), we adjusted the final concentration of NaCl to 1 mM in all assays with TACE. Equal volumes (10% of total assay volume) of diluted solutions of N-TIMP-3 and mutants were added to TACE assays, resulting in a final pH of 8.8.
(§2) (Eq. 1) Tight binding inhibition:
(§3) where v is the experimentally determined reaction velocity, v0 is the uninhibited activity, E is enzyme concentration, I is inhibitor concentration, K is the apparent inhibition constant (Ki^(app)) and h is the Hill coefficient.
(§4) Inhibitory properties of mutants with purified metalloproteinases—The inhibitory activities of wild-type N-TIMP-3 and the two mutants were determined with MMPs representing four different sub-groups: full-length collagenase 1 (MMP-1), gelatinase A (MMP-2), and the catalytic domains of stromelysin 1 (MMP-3(ΔC)) and membrane-type 1 MMP (MMP-14). As previously reported for the corresponding mutants of N-TIMP-1 and TIMP-2 (17, 18), both mutations in N-TIMP-3 reduced the inhibitory activity towards the four MMPs by 2 to 3 orders of magnitude (Table I). FIG. 2A highlights the difference in inhibition of MMP-14(CD) by wild-type and mutated N-TIMP-3.
(§5) Ki(app) determinations for MMP-1, MMP-2 and MMP-3 were performed as set out in Example 1.

Experiment [2] deals with T2, gelatinase A (MMP-2) (Homo sapiens, UniProt P08253).
T2 sequence (P08253 110-660): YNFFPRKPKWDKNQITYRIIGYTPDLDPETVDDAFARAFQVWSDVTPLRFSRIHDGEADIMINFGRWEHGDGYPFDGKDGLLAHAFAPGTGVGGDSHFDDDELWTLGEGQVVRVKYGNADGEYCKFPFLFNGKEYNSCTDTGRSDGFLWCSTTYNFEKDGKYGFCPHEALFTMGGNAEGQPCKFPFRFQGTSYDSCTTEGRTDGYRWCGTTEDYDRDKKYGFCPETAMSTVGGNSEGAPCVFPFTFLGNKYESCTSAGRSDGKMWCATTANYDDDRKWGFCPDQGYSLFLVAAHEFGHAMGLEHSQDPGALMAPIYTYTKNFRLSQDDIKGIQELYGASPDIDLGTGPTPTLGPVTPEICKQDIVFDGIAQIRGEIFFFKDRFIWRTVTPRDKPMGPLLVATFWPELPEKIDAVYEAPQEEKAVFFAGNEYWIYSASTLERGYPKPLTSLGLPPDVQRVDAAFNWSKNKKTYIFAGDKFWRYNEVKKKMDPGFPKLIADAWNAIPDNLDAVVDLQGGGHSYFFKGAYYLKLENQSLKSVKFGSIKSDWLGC
The experiment can be described thus: Enzyme inhibition kinetic study, MMP-2. The note with it: for Ki: read-out: Ki(app) MMP-2. Here is the method:
as §1, §2, §3, §4, §5

Experiment [3] concerns the target T3, catalytic domain of stromelysin 1 (MMP-3(ΔC)) (Homo sapiens, UniProt P08254).
T3 construct: the catalytic domains of stromelysin 1 (MMP-3(ΔC)) and membrane-type 1 MMP (MMP-14)
In words: Enzyme inhibition kinetic study, MMP-3. Here is the method:
as §1, §2, §3, §4, §5

Experiment [4] deals with soluble form of TACE (TACE R651) (Homo sapiens, UniProt P78536). In words: Enzyme inhibition kinetic study, TACE. Here is the method:
FIG. 2. Inhibition of MMP and TACE by N-TIMP-3 and its mutants. A. Inhibition of MMP-14(CD) by wild-type and mutated N-TIMP-3. Open circles, wild-type N-TIMP-3; closed circles, T2G; and open squares, -1A. B. Comparison of the inhibition of TACE by wild-type N-TIMP-3, N-TIMP-1 and TAPI-2. The inhibitors were incubated with 0.5 nM TACE for 3 hr at room temperature, and the residual enzyme activity was measured with 10 μM Substrate III (R&D Systems). […] Open circles, N-TIMP-3; closed circles, TAPI-2; and open squares, N-TIMP-1. C. Inhibition of TACE (0.5 nM) by wild-type and mutated N-TIMP-3. Open circles, wild-type inhibitor; closed circles, T2G; and open squares, -1A.
as §1, §3
The inhibitory activities of the mutants were also compared with that of wild-type N-TIMP-3 against a soluble form of TACE in which the transmembrane and C-terminal cytoplasmic domains are deleted (TACE R651; (28)). […] The inhibition curve of TACE by wild-type N-TIMP-3 is sigmoid, in striking contrast with the inhibition by TAPI-2 and with the inhibition of MMPs by N-TIMP-3 and N-TIMP-1 (FIGS. 2A, 2B; (31)). Sigmoid inhibition curves were also obtained for TACE with the T2G and -1A mutants of N-TIMP-3 (FIG. 2C).

The mark [5] stands for this setting: Table 3, read-out: Ki(app) MMP-1.
Where [6] appears, read: higher pH and low ionic strength (TACE conditions), read-out: Ki MMP-1 under the conditions used for TACE activity measurements.
Where [7] appears, read: Table 3, read-out: Ki(app) MMP-3.
[8] abbreviates: Table II, 0.5 nM TACE, pH 9.0, 1 mM NaCl, fit with equation 3.
Where [9] appears, read: Table II, 0.5 nM TACE, pH 9.0, 1 mM NaCl, fit with equation 3, read-out: Ki(app) TACE.

Read-outs that look alike come from different tables or passages of the source.

soluble form of TACE (TACE R651), sequence (P78536 215-651): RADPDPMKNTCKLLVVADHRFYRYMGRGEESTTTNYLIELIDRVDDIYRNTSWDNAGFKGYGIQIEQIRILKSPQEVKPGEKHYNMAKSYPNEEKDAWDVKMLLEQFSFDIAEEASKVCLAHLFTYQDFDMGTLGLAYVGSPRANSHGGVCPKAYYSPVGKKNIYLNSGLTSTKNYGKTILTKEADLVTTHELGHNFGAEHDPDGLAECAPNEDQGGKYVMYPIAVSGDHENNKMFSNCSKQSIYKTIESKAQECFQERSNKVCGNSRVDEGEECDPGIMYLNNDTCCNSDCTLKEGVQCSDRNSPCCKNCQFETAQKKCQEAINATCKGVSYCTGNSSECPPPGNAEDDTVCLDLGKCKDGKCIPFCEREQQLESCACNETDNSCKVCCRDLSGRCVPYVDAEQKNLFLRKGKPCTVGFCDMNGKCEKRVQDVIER
T3 sequence (P08254 100-272 limits assumed, stated change not applied): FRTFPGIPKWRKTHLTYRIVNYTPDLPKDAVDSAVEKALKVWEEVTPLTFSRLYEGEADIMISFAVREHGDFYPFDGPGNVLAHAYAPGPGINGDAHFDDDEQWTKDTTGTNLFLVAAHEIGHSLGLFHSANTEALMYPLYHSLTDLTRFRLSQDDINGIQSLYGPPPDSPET

B1: N-TIMP-3: N-terminal inhibitory domain of TIMP-3 (residues 1 to 121), C-terminally His-tagged, wild-type (protein)
chain: CTCSPSHPQDAFCNSDIVIRAKVVGKKLVKEGPFGTLVYTIKQMKMYRGFTKMPHVQYIHTEASESLCGLKLEVNKYQYLLTGRVYDGKMYTGLCNFVERWDQLTLSQRKGLNYRYHLGCN
For B1, the Ki in experiment [1] (setting [5]) worked out at 8.2 ± 2 nM; in experiment [1] (setting [6]), 1.6 nM; in experiment [2] (Table 3), 5.1 ± 1 nM; in experiment [3] (setting [7]) it was 1.8 ± 0.4 nM; in experiment [4] (setting [9]) it was 13.7 ± 0.2 nM; in experiment [4] (pH 7.5, sigmoid inhibition curves, read-out: Ki against TACE at pH 7.5) it was 26 ± 3 nM. In experiment [4] (FIG. 2B, 0.5 nM TACE, pH 9.0, 1 mM NaCl), the “Inhibition of TACE activity (in words)” value was “effectively inhibited”. In experiment [4] (setting [8]), the “h (Hill coefficient) for TACE inhibition” value is on record as 3.59 ± 0.16.

B2: (-2A)N-TIMP-3: N-TIMP-3 mutant with two alanine residues on the N-terminal side of Cysteine1 of the TIMP-3 sequence (protein)
chain: AACTCSPSHPQDAFCNSDIVIRAKVVGKKLVKEGPFGTLVYTIKQMKMYRGFTKMPHVQYIHTEASESLCGLKLEVNKYQYLLTGRVYDGKMYTGLCNFVERWDQLTLSQRKGLNYRYHLGCN
On to B2, for which the “Inhibition of MMP-1” value in experiment [1] (100 nM) is reported as “no inhibition”. For the same molecule, in experiment [2] (100 nM), the “Inhibition of MMP-2” value was “no inhibition”. Moreover, the “Inhibition of MMP-3” value in experiment [3] (100 nM) was “no inhibition”. In addition, in experiment [4] (100 nM), the “Inhibition of TACE activity” value was 80-90%.

B3: -1A: N-TIMP-3 mutant with the addition of an N-terminal alanine extension (-1A) (protein)
chain: ACTCSPSHPQDAFCNSDIVIRAKVVGKKLVKEGPFGTLVYTIKQMKMYRGFTKMPHVQYIHTEASESLCGLKLEVNKYQYLLTGRVYDGKMYTGLCNFVERWDQLTLSQRKGLNYRYHLGCN
For B3, the Ki in experiment [1] (setting [5]) is above 500 nM; in experiment [1] (Table I, enzyme 5 nM, pH 7.5, read-out: Ki(app) MMP-1), around 1300 nM; in experiment [1] (setting [6]) it was 412 nM; in experiment [2] (Table 3), above 1000 nM; in experiment [2] (Table I, enzyme 1 nM, pH 7.5) it was 614 ± 32 nM; in experiment [3] (setting [7]), above 1000 nM. In addition, the Ki is around 3300 nM in experiment [3] (Table I, enzyme 1 nM, pH 7.5, read-out: Ki(app) MMP-3(ΔC)) and 33.9 ± 2.8 nM in experiment [4] (setting [9]). For the same molecule, in experiment [4] (setting [8]), the “h (Hill coefficient) for TACE inhibition” value came to 1.9 ± 0.22.
